According to patent US20040147006, “Peptides that bind to DNA and inhibit DNA replication, and methods of use” (published 2004):
Where no end group is shown, it is not given here. [ ]: non-standard residue; d: D form. pT = C[C@@H](OP(=O)(O)O)[C@H](N)C(=O)O

Assays:
[1] = target: T1, E1 peptide E1-P2(25), BP-E1, unphosphorylated (Bovine papillomavirus, UniProt P03116 SEQ:1-25); assay: filter; binds at 0.25 mM, better than T-2(17); EMSA works without glutaraldehyde; conditions: protein: synthetic; tags: synthetic peptide; label: 5'-32P
T1 chain: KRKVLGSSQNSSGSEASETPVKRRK

[2] = target: SV40 large T antigen (full length) (Simian virus 40, UniProt P03070 P03070:1-708); assay: EMSA; hexamers and double hexamers; 7 mM MgCl2, AMP-PNP, 37 C, glutaraldehyde; conditions: label: 5'-32P
[3] = target: T2, T-ag peptide 1(9), phospho-Thr124 (Simian virus 40); assay: filter; background at 0.5-2 mM; EMSA at 2 mM negative; conditions: protein: synthetic; tags: synthetic peptide, phosphorylated Thr124; label: 5'-32P
T2 chain: SQHS[pT]PPKK

[4] = target: T3, T-ag peptide 2(9), unphosphorylated (Simian virus 40); assay: as above; conditions: protein: synthetic; tags: synthetic peptide; label: 5'-32P
T3 chain: SQHSTPPKK

[5] = target: T4, T-ag peptide T-2(17), unphosphorylated (Simian virus 40, UniProt P03070); assay: filter; significant at 0.5 mM, saturated at 1-2 mM; higher affinity than 13-mer; conditions: protein: synthetic; tags: synthetic peptide; label: 5'-32P
T4 chain: ATADSQHSTPPKKKRKV

B1: 64-bp SV40 core origin (dsDNA)
DNA 1: TAATTTTTTTTATTTATGCAGAGGCCGAGGCCGCCTCGGCCTCTGAGCTATTCCAGAAGTAGTG
DNA 2: CACTACTTCTGGAATAGCTCAGAGGCCGAGGCGGCCTCGGCCTCTGCATAAATAAAAAAAATTA
binding result [1]: binds
binding result [2]: binds
binding result [3]: no binding
binding result [4]: no binding
binding result [5]: binds
